Experimental data as given in patent US8008547B2, “Glyphosate-N-acetyltransferase (GAT) genes” (E.I. duPont de Nemours, priority 2000, dated 2011).
Substitutions are numbered along the chain they refer to.

B1: SEQ ID NO: 340: GAT polypeptide (protein)
chain: MIEVKPINAEDTYEIRHRILRPNQPLEACKYETDLLGGTFHLGGYYRGKLISIASFHKAEHSELEGEEQYQLRGMATLEGYREQKAGSTLIRYAEELLRKKGADLLWCNARTSVSGYYKKLGFSEQGEVYDIPPIGPHILMYKKLT
modifications: 15F5
notes: GAT polypeptide
B2: SEQ ID NO: 342: GAT polypeptide (protein)
chain: B1 chain with E3D, R47Q, K58Q, E67Q, E68K, Y93H, K119E
modifications: 16H3
notes: GAT polypeptide
B3: SEQ ID NO: 341: GAT polypeptide (protein)
chain: B1 chain with K30M, F40L, R47Q, E63G, Y93H, K119E
modifications: 16A1
notes: GAT polypeptide
B4: SEQ ID NO: 343: GAT polypeptide (protein)
chain: B1 chain with N8S, K30M, T39A, R47Q, K58Q, E67Q, E68K, Y93H, K119E
modifications: 17C12
notes: GAT polypeptide
B5: SEQ ID NO: 307: GAT polypeptide (protein)
chain: MIEVKPINAEDTYEIRHRILRPNQPLEACKYETDLLRGAFHLGGYYRGKLVSIASFHQAEHPELEGQKQYQLRGMATLEEYREQKAGSTLIRHAEELLRKKGADLLWCNARTSASGYYKKLGFSEQGEVYDTPPVGPHILMYKKLT
modifications: 14_10H3
notes: GAT polypeptide
B6: SEQ ID NO: 334: GAT polypeptide (protein)
chain: B5 chain with R37G, A39T, T132I
modifications: 15_3G11
notes: GAT polypeptide
B7: SEQ ID NO: 313: GAT polypeptide (protein)
chain: B5 chain with E80G, T132I, V135T
modifications: 14_2G11
notes: GAT polypeptide
B8: SEQ ID NO: 319: GAT polypeptide (protein)
chain: B5 chain with Q67L, E80G, V135T
modifications: 14_7A11
notes: GAT polypeptide
B9: SEQ ID NO: 317: GAT polypeptide (protein)
chain: B5 chain with R37G, A39T, V51I, E80G, E128G, T132M
modifications: 14_6B10
notes: GAT polypeptide
B10: SEQ ID NO: 335: GAT polypeptide (protein)
chain: B5 chain with E14K, K30M, R37G, A39T, H57N, E80G, E96A, T132I, V135T
modifications: 15_4F11
notes: GAT polypeptide
B11: SEQ ID NO: 332: GAT polypeptide (protein)
chain: B5 chain with A39T, T132I
modifications: 15_12D9
notes: GAT polypeptide
B12: SEQ ID NO: 326: GAT polypeptide (protein)
chain: B5 chain with K30M, R37G, A39T, T132I
modifications: 15_10D6
notes: GAT polypeptide
B13: SEQ ID NO: 321: GAT polypeptide (protein)
chain: B5 chain with R37G, A39T, E60K, E80G
modifications: 14_7A9
notes: GAT polypeptide
B14: SEQ ID NO: 324: GAT polypeptide (protein)
chain: B5 chain with R37G, A39T, E96A, T132I, V135T
modifications: 14_8F7
notes: GAT polypeptide
B15: SEQ ID NO: 323: GAT polypeptide (protein)
chain: B5 chain with R37G, A39T, E80G, T132I
modifications: 14_7H9
notes: GAT polypeptide
B16: SEQ ID NO: 315: GAT polypeptide (protein)
chain: B5 chain with R37G, G38S, A39T, V51I, E80G
modifications: 14_4H8
notes: GAT polypeptide
B17: SEQ ID NO: 327: GAT polypeptide (protein)
chain: B5 chain with H57N, E80G, K100R, T132I, V135T
modifications: 15_11F9
notes: GAT polypeptide
B18: SEQ ID NO: 312: GAT polypeptide (protein)
chain: B5 chain with R37G, A39T, V51I, H57N, E80G, E128G, T132I
modifications: 14_2B6
notes: GAT polypeptide
B19: SEQ ID NO: 318: GAT polypeptide (protein)
chain: B5 chain with R37G, A39T, V51I, H57N, E80G, E96A
modifications: 14_6D4
notes: GAT polypeptide
B20: SEQ ID NO: 308: GAT polypeptide (protein)
chain: B5 chain with E80G
modifications: 14_10H9
notes: GAT polypeptide
B21: SEQ ID NO: 322: GAT polypeptide (protein)
chain: B5 chain with V51I, H57N, E96A
modifications: 14_7G1
notes: GAT polypeptide
B22: SEQ ID NO: 320: GAT polypeptide (protein)
chain: B5 chain with K30M, A39T, V135A
modifications: 14_7A1
notes: GAT polypeptide
B23: SEQ ID NO: 309: GAT polypeptide (protein)
chain: B5 chain with R37G, G38S, A39T, E96A, V135T
modifications: 14_11C2
notes: GAT polypeptide
B24: SEQ ID NO: 325: GAT polypeptide (protein)
chain: B5 chain with E80G, S113T, Y130F, T132I, V135T
modifications: 15_10C2
notes: GAT polypeptide
B25: SEQ ID NO: 333: GAT polypeptide (protein)
chain: B5 chain with V51I, A54V, E80G, V135A, K143T
modifications: 15_3F10
notes: GAT polypeptide
B26: SEQ ID NO: 316: GAT polypeptide (protein)
chain: B5 chain with K30M, R37G, A39T, H57N, E80G, I139V
modifications: 14_6A8
notes: GAT polypeptide
B27: SEQ ID NO: 328: GAT polypeptide (protein)
chain: B5 chain with V51I, E80G, E96A, T132I, V135T
modifications: 15_11H3
notes: GAT polypeptide
B28: SEQ ID NO: 336: GAT polypeptide (protein)
chain: B5 chain with R37G, A39T, T132I, V135T
modifications: 15_4H3
notes: GAT polypeptide
B29: SEQ ID NO: 337: GAT polypeptide (protein)
chain: B5 chain with R37G, A39T, V51I, T132I, V135T
modifications: 15_6D3
notes: GAT polypeptide
B30: SEQ ID NO: 263: GAT polypeptide (protein)
chain: B5 chain with A39T, V51I, E80G, T132I
modifications: 13_10F6
notes: GAT polypeptide
B31: SEQ ID NO: 314: GAT polypeptide (protein)
chain: B5 chain with E80G, E96A, E128G, T132I, V135A
modifications: 14_3B2
notes: GAT polypeptide
B32: SEQ ID NO: 329: GAT polypeptide (protein)
chain: B5 chain with R37G, A39T, V51I, E80G, E96A, T132I, V135T
modifications: 15_12A8
notes: GAT polypeptide
B33: SEQ ID NO: 338: GAT polypeptide (protein)
chain: B5 chain with E128K, T132I
modifications: 15_6G11
notes: GAT polypeptide
B34: SEQ ID NO: 264: GAT polypeptide (protein)
chain: B5 chain with K68R, E80G, T132I, V135T
modifications: 13_12G6
notes: GAT polypeptide
B35: SEQ ID NO: 311: GAT polypeptide (protein)
chain: B5 chain with R37G, V51I, T132I, V135T
modifications: 14_12H6
notes: GAT polypeptide
B36: SEQ ID NO: 339: GAT polypeptide (protein)
chain: B5 chain with R37G, A39T, V51I, K100R, T132I
modifications: 15_9F6
notes: GAT polypeptide
B37: SEQ ID NO: 310: GAT polypeptide (protein)
chain: B5 chain with R37G, A39T, E80G, E96A, S124R, E128G, T132I
modifications: 14_12D8
notes: GAT polypeptide
B38: SEQ ID NO: 331: GAT polypeptide (protein)
chain: B5 chain with R37G, A39T, E80G, E128K, T132I
modifications: 15_12D8
notes: GAT polypeptide
B39: SEQ ID NO: 330: GAT polypeptide (protein)
chain: B5 chain with K30M, E80G
modifications: 15_12D6
notes: GAT polypeptide

Assay: Standard protocol for determination of kcat and KM (continuous spectrophotometric assay, Acetyl CoA hydrolysis at 235 nm)
Type: biochemical
Settings: purified protein, about 23° C., 0.2 mM acetyl CoA; for Kcat: 20 mM HEPES pH 6.8, 10% ethylene glycol; for Km: pH 6.8, glyphosate 0.125 to 10 mM
Outline: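 KM from initial rates over 0.125–10 mM glyphosate, fitted by Lineweaver-Burke transformation of Michaelis-Menten; kcat/KM computed as kcat divided by KM. Continuous spectrophotometric read of acetyl-CoA hydrolysis at 235 nm.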

Row | Molecule | Kcat [s⁻¹] | Km [µM]
1 | B1 | 0.0083 | 2900
2 | B2 | 0.0583 | 2900
3 | B3 | 0.173 | 2900
4 | B4 | 0.0533 | 1400
5 | B5 | 1.753 | 600
6 | B6 | 1.19 | 1200
7 | B7 | 1.16 | 1400
8 | B8 | 3.287 | 3700
9 | B9 | 2.245 | 1400
10 | B10 | 1.34 | 900
11 | B11 | 0.995 | 1400
12 | B12 | 1.12 | 1000
13 | B13 | 4.098 | 3200
14 | B14 | 1.51 | 1800
15 | B15 | 1.07 | 1300
16 | B16 | 3.313 | 2000
17 | B17 | 1.27 | 1000
18 | B18 | 0.57 | 630
19 | B19 | 4.27 | 1000
20 | B20 | 2.12 | 1100

Row | Molecule | Kcat [s⁻¹] | Km [µM]
21 | B21 | 2.278 | 660
22 | B22 | 2.597 | 1600
23 | B23 | 1.812 | 1000
24 | B24 | 1.16 | 800
25 | B25 | 0.812 | 900
26 | B26 | 0.728 | 780
27 | B27 | 1.03 | 1000
28 | B28 | 1.56 | 1000
29 | B29 | 1.43 | 1400
30 | B30 | 0.81 | 1300
31 | B31 | 1.14 | 850
32 | B32 | 1.28 | 1600
33 | B33 | 0.615 | 900
34 | B34 | 0.868 | 1200
35 | B35 | 1.52 | 900
36 | B36 | 0.993 | 1100
37 | B37 | 1.04 | 1000
38 | B38 | 0.995 | 1300
39 | B39 | 2.477 | 740
